Experimental data: patent US20180057581A1 (MorphoSys, published 2018)

Assays:
Test in all cases: MSD specificity profiling, coated protein, Camille at 10 nM
human M-CSF = molecular target: T1, human M-CSF (human, UniProt P09603 33-255, limits assumed)
T1 construct: also called M-CSF (human); CSF-1
T1 sequence: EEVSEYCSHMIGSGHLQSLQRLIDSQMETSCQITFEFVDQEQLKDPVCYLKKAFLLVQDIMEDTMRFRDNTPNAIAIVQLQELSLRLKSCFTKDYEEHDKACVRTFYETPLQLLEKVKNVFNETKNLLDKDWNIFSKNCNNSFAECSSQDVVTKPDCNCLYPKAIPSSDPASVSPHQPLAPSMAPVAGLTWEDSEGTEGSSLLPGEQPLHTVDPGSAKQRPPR
Protocol: (§1) For this specificity profiling test the different proteins and controls were coated on two 384-well MSD plates with a concentration of 1 μg/ml at 4° C. over night. Plates were blocked with BSA and washed three times with PBS with 0.05% (v/v) Tween 20. Antibody samples were diluted to 100 nM and 10 nM in assay buffer (PBS with 0.5% (w/v) BSA, 0.05% (v/v) Tween 20). […] Samples and controls were incubated for three hours at room temperature. The plates were washed three times and 30 μl detection antibody (ECL-labeled anti-human Fab) were added per well and incubated for 1 h. After washing, MSD Read Buffer T with surfactant was added and electrochemiluminescence signals were detected using a Sector Imager 6000 (Meso Scale Discovery, Gaithersburg, Md., USA).

Transferrin (bovine) = Transferrin (bovine) (bovine, UniProt Q29443 20-704)
Protocol: as §1

Lectin (Lens culinaris) = molecular target: T2, Lectin (Lens culinaris) (Lens culinaris, UniProt P02870 31-210; P02870 218-269, limits assumed)
T2 sequence (looked up) 1: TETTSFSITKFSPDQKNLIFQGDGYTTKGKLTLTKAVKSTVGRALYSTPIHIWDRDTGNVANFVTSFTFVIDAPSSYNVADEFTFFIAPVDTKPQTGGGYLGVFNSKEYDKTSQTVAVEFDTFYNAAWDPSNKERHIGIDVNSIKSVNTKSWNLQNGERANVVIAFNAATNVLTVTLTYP
T2 sequence (looked up) 2: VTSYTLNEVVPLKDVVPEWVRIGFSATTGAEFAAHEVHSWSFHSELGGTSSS
Protocol: as §1

Pepsinogen (pork) = Pepsinogen (pork) (pork, UniProt P00791 16-385)
Protocol: as §1

[1] = molecular target: Cell surface receptor 2 (human) (human)
Protocol: as §1

Ovalbumin (chicken) = molecular target: T3, Ovalbumin (chicken) (chicken, UniProt P01012 2-386)
T3 sequence (looked up): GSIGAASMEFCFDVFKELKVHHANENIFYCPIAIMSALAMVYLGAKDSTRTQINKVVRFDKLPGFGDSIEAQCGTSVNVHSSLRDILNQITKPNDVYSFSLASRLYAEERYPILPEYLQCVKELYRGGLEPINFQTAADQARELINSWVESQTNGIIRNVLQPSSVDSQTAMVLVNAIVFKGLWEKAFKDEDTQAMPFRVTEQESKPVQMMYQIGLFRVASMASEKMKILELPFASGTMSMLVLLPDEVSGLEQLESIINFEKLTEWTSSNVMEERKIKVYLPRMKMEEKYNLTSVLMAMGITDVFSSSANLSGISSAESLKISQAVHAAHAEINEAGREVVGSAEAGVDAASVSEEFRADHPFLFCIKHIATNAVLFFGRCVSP
Protocol: as §1

Cytokine 2 (human) = Cytokine 2 (human) (human)
Protocol: as §1

[2] = molecular target: Cell surface receptor 1 (human) (human)
Protocol: as §1

[3] = molecular target: Anti-human Fc (Dianova, #109-005-098)
Protocol: as §1

Myoglobin (horse) = Myoglobin (horse) (horse, UniProt P68082 2-154)
Protocol: as §1

[4] = molecular target: Trypsin inhibitor (Soybean) (Soybean)
Protocol: as §1

[5] = molecular target: Aminogylcosidase (Aspergillus niger) (Aspergillus niger)
Protocol: as §1

Lysozyme (chicken) = Lysozyme (chicken) (chicken, UniProt P00698 19-147)
Protocol: as §1

Trypsinogen (cow) = molecular target: T4, Trypsinogen (cow) (cow, UniProt P00760 18-246)
T4 sequence (looked up): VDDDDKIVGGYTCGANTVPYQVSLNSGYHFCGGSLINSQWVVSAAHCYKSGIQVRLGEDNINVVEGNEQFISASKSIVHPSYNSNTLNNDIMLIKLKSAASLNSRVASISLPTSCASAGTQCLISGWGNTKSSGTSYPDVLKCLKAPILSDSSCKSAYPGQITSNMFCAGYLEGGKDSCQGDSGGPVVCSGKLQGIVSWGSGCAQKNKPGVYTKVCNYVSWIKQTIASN
Protocol: as §1

Measured: signal normalized to reference antibody MOR03207

Sequence of Myoglobin (horse) (P68082 2-154 limits assumed): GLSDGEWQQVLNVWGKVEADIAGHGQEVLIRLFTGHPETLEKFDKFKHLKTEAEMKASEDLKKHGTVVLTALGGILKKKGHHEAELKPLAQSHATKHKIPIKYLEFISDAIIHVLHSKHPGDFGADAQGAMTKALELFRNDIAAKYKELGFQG
Sequence of Trypsin inhibitor (Soybean) (Soybean) (P01070 25-205): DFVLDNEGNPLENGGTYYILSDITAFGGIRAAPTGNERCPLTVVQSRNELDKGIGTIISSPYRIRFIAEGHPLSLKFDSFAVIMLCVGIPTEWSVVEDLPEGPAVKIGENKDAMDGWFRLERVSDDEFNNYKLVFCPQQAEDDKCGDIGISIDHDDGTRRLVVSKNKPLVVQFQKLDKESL
Sequence of Aminogylcosidase (Aspergillus niger) (Aspergillus niger) (P69328 25-640): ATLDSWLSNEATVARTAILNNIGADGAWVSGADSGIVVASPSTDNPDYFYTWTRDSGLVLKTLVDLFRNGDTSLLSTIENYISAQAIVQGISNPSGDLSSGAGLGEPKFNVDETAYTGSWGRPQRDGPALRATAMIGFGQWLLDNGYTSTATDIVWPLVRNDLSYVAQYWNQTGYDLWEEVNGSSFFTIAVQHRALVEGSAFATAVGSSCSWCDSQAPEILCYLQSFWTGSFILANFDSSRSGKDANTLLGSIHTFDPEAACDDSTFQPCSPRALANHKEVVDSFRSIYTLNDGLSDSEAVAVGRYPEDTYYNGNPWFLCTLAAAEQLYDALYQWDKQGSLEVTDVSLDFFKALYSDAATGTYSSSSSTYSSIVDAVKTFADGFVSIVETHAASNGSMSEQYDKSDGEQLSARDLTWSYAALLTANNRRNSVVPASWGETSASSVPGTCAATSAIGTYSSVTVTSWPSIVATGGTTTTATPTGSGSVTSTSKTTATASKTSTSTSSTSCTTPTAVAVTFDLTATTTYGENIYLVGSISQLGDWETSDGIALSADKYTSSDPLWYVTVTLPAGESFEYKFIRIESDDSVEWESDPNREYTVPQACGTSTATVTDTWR
Sequence of Lysozyme (chicken) (P00698 19-147): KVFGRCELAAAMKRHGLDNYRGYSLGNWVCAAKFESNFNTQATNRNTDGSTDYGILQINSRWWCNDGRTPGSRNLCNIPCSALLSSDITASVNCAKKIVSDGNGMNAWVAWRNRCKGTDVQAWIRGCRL
Sequence of Transferrin (bovine) (Q29443 20-704 limits assumed): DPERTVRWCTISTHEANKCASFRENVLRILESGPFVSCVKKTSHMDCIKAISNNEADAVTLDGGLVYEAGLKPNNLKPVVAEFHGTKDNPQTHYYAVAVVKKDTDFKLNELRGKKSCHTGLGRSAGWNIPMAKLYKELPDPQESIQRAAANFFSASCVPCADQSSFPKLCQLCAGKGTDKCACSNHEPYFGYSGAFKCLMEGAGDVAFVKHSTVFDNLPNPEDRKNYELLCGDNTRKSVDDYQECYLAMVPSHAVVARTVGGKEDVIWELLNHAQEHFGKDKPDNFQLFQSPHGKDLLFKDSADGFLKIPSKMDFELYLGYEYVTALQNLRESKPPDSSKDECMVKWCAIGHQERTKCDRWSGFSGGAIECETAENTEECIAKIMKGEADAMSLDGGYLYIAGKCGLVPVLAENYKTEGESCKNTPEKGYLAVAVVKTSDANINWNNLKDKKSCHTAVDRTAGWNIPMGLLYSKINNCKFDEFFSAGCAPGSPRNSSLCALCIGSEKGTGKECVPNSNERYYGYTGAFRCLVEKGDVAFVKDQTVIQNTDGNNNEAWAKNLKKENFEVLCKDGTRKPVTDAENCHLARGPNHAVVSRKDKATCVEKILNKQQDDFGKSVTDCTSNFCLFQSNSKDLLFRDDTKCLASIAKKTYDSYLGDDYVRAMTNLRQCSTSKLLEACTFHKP
Sequence of Pepsinogen (pork) (P00791 16-385): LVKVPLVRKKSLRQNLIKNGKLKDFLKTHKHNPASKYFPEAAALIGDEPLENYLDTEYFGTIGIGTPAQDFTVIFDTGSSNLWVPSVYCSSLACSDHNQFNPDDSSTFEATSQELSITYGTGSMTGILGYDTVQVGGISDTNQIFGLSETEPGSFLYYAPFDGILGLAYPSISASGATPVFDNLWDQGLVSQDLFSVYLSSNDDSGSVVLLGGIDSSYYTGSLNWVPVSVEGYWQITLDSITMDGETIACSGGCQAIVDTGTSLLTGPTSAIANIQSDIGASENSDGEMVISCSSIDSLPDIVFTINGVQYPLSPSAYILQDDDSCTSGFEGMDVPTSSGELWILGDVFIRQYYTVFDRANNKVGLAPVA

B1: Camille (format not stated) (antibody, V domains shown)
VH: QVQLQQSGPGLVKPSQTLSLTCAISGESVSTSSAAWNWIRQSPSRGLEWLGRTYYRSKWKHEYAVSVKSRITINPDTSKNQFSLQLNSVTPEDTAVYYCARDRYYYSAFDYWGQGTLVTVSS
VL: QSALTQPASVSGSPGQSITISCTGTSSDVGGYNSVSWYQQHPGKAPKLLIYAVSNRPSGVSNRFSGSKSGNTASLTISGLQAEDEADYYCASYDERFTRVFGGGTKLTVLG
notes: also called Antibody Camille
0 ratio: Lysozyme (chicken)
244 ratio: human M-CSF
1 ratio: all other assays above
